Each binder was assayed against SARS-CoV-2 spike protein bearing furin mutation and truncation in retention sequence, on pseudoviral particles (SARS-CoV-2, UniProt P0DTC2 14-1255) (assay: cell-based or functional assay).

| Binder | PV neutralization % (Ab 1 ug/mL) | PV neutralisation IC50 |
| --- | --- | --- |
| YANG-1110 (antibody, V domains shown) VH: QVQLAESGGGVVQPGRSLRLSCVVSGFTFSNYGMHWVRQAPGKGLEWVVFISNDGSNEDFVDSVKGRFTISRDNSKNTLYLQMNSLRAEDTAVYYCAKGGYFYGSGNYYYYYGMDVWGQGTTVTVSS VL: QPVLTQSSSASASLGSSVKLTCTLSSVHSNHIIAWHQQQPGKAPRYLMKLEGSGRYSKGSGVPDRFSGSSSEADRYLTISNLQSEDEADYYCETWDNNTYVFGSGTKVTVL | 99.3% |  |
| YANG-1103 (antibody, V domains shown) VH: EVQMVESGGGLIQPGGSLRLSCAASGLTVSSNYMSWVRQAPGKGLEWVSVIYSGGSTFYADSVKDRFTISRDNSKNTLYLQMNSLRAEDTAVYYCARENWNYVFDCWGQGTLVTVSS VL: DIQLTQSPSFLSASVGDRVTITCWASQGISSYLAWYQQKPGKAPKLLIYAASTLQSGVPSRFSGSGSGTEFTLTISSLQPEDFATYYCQQLNSHPIIFGQGTRLEIK | 100% | 0.28 nM |
| YANG-1109 (antibody, V domains shown) VH: EVQLVESGGGLIQPGGSLRLSCGVSGLTVSRNYMNWVRQAPGKGLEWVSVIYSGGSTFYADSVKGRFTISRDNSKNTLYLQMISLRAEDSGVYYCAREGFGMDVWGQGTTVTVSS VL: DIQLTQSPSFLSASVGDRVTITCWASQGISNYLAWYQQKPGKAPKLLIYSASTLQSGVPSRFSGSGSGTEFTLTISNLQPADIATYYCQLLNSHPCSFGQGTKLEIK | 99.4% | 1.81 nM |
| YANG-1105 (antibody, V domains shown) VH: EVQVVESGGGLIQPGGSLRLSCAASGITVSRNYMNWVRQAPGKGLEWVSVIYSGGSTFYADSVKGRFTISRDNSKNTLYLQMNSLRADDTGVYYCAREGYGMDVWGQGTTVTVSS VL: DIQLTQSPSFLSASVGDRVTITCWASQGISSYLAWYQQKPGKAPKLLIYSASTLQSGVPSRFSGSGSGTEFTLTINSLQPEDFATYYCQQLNSHPCSFGQGTKLEIK | 97.2% |  |
| YANG-1107 (antibody, V domains shown) VH: EVQMVESGGGLIQSGGSLRLSCAASGLSVSSNYMSWVRQAPGKGLEWVAVIYSGGSIFYADSVKDRFTISRDNSKNTLYLQMNSLRAEDTAVYYCARENWNYVFDCWGQGTLVTVSS VL: DIQLTQSPSFLSASVGDRVTITCWASQGISTYLAWYQQKPGKAPKLLIYAASTLQSGVPSRFSGSGSGTEFTLTISSLQPEDFATYYCQQLSSHPIIFGQGTRLEIK | 99.2% |  |
| YANG-1112 (antibody, V domains shown) VH: QITLKESGPTLVKPTQTLTLTCTFSGFSLSTGGVAVGWIRQPPGKALEWLAIIYWDDDKRYSPSLKSRLTITKDTSKNQVVLTMTNMDPVDTATYYCAHWGKDSFDIWGQGTMVTVSS VL: SYELTQPPSVSVSPGQTARITCSGDALPRKYAYWYQQKSGQAPVLVIYEDNNRPSGIPERFSGSSSGTTATLTVSGAQVEDEADYYCYSTDTSGYVVFGGGTKLTVL | 89.2% | 0.52 nM |
| YANG-1101 (antibody, V domains shown) VH: QLQLQESGPGLVKPSETLSLTCTVSGGSISSSSYYWGWIRQPPGKGLEWIGSIYYSGSIYYNPSLKSRVTISVDTSKNQFSLKLSSVTAADTAVYYCASWFGEFLKADAFDIWGQGTMVTVSS VL: QSALTQPASVSGSPGQSITISCTGTSSDVGGYSYVSWYQQHPGKAPKLMIYDVSKRPSGVSNRFSGSKSGNTASLTISGLQAEDEADYYCCSYAGGSTFVVFGGGTKLTVL | 98% |  |
| YANG-1119 (antibody, V domains shown) VH: EVQLVESGGGLVKPGGSLRLSCAASGFTFSSYSMNWVRQAPGKGLEWVSSISTGSSYIFYADSVKGRFTISRDNAKNSLYLQMNSLRAEDTAVYYCAKTGDLPFFDYWGQGTLVTVSS VL: QSALTQPASVSGSPGQSITISCTGTSSDVGRYNYVSWYQQHPGKAPKLMIYEVSNRPSGVSNRFSGSKSGNTASLTISGLQAEDEADYYCSSYTSSSTMVFGGGTKLTVL | 99% | 0.96 nM |
| YANG-1113 (antibody, V domains shown) VH: EVQLVESGGGLVKPGGSLRLSCAASGFTFSSYSMNWVRQAPGKGLEWVSSISTGSSYIFYADSVKGRFTMSRDNAKNSLYLQMNSLRAEDTAVYYCAKTGDLPFFDYWGQGTPVTVSS VL: QSALTQPASVSGSPGQSITISCTGTSSDVGRYNYVSWYQQHPGKAPKLMIYEVSNRPSGVSNRFSGSKSGNTASLTISGLQAEDEADYYCSSYTSSSTMVFGGGTKLTVL | 97.6% |  |
| YANG-1117 (antibody, V domains shown) VH: EVQLVESGGGLVKPGGSLRLSCAASGFTFSSYSVNWVRQAPGKGLEWVSSISTGSSYIFYADSVKGRFTISRDNAKNSLYLQMNSLRAEDTAVYYCVKTGDLPFFDYWGQGTLVTVSS VL: QSALTQPASVSGSPGQSITISCTGTRSDVGRYNYVSWYQQHPGKAPKLMIYEVTNRPSGVSNRFSGSKSGNTASLTISGLQAEDEADYYCSSYTNNSTMVFGGGTKLTVL | 97.8% |  |
| YANG-1116 (antibody, V domains shown) VH: EVQLVESGGGLVKPGGSLRLSCEASGFNFRSYALNWVRQAPGKGLEWVSSISTGSSYIFYADSVKGRFTISRDNAKNSLSLQMNSLRAEDTAVYYCAKTGDLPFFDYWGQGTLVTVSS VL: QSALTQPASVSGSPGQSITISCTGTSSDVGRYNYVSWYQQHPGKAPKLMIYEVSNRPSGVSNRFSGSKSGNTASLTISGLQAEDEADYYCISYTSSSTMVFGGGTKLTVL | 99.2% |  |
| YANG-1115 (antibody, V domains shown) VH: EVQLVESGGGLVKPGGSLRLSCAASGFTFSSYSMNWVRQAPGKGLEWVSSISTGSSYIFYADSVKGRFTISRDNAKNSLYLQMNSLRAEDTAVYYCAKTGDLPFFDYWGQGTLVTVSS VL: QSALTQPASVSGSPGQSITISCTGTSSDVGRYNYVSWYQQHPGKAPKLMIYEVSNRPSGVSNRFSGSKSGNTASLTISGLQAEDEADYYCSSYTSSSTMVFGGGTKLSVL | 97.8% |  |
| YANG-1114 (antibody, V domains shown) VH: EVHLVESVGGLVKPGGSLRLSCAASGFTFSSYSMNWVRQAPGKGLEWVSSISTGSSYIFYADSVKGRFTISRDNAKNSLYLQMNSLRAEDTAVYYCAKTGDLPFFDYWGQGTLVTVSS VL: QSALTQPASVSGSPGQSITISCTGTSSDVGRYNYVSWYQQHPGKAPKLMIYEVSNRPSGVSNRFSGSKSGNTASLTISGLQAEDEADYYCSSYTSSSTMVFGGGTKLTVL | 93.2% |  |
| YANG-1111 (antibody, V domains shown) VH: EVQLVESGGGLIQPGGSLRLSCAASGFTFSSYSINWVRQAPGKGLEWVSFISGSSTTIYYADSVKGRFTISRDSAKNSLYLQMNSLRDEDTAVYYCARGLRSSIAPRPDYFDSWGQGILVTVSS VL: SYVLTQPPSVSVAPGKTARITCGGNNIGSKGVHWYQQKPGQAPVLVIYYDSDRPSGIPERFSGSNSGNTATLTISRVEAGDEADYSCQVWDSSSDHPVFGGGTKLTVQ | 72.7% | 1.82 nM |
| YANG-1106 (antibody, V domains shown) VH: EVQLVESGGGLIQPGGSLRLSCAASEFIVSRNYMSWVRQAPGKGLEWVSVIYSGGSTFYADSVRGRFTISRDNSKNTLYLQMNSLRAEDTAVYYCARDYGDQYFDYWGQGTLVTVSS VL: EMVMTQSPATLSVSPGEKATLSCRASQTVSTNLAWYQQKPGQSPRLLIYGASTRATGIPARFSGSGSGTEFTLTISSLQSEDFAIYYCQQYVDWPRTFGQGTTVEIK | 99.5% |  |
| YANG-1102 (antibody, V domains shown) VH: QVQLQESGPGLVKPSGTLSLTCAVSGGSISTTNWWSWVRQSPGRGLEWIGEIFHIGYTNYNPSLKSRVTISVDKSKNQFSLKLNSVTVADTAVYYCARRVVMDTAMAHFDCWGQGTLVTVSS VL: QSVLTQPPSVSGAPGQRVTISCTGSSSNIGAGYDVHWYQHLPGTAPKLLIYININRPSGVPDRFSGSKSGTSASLVIAGLQAEDGADYYCQSYDSSLSGWVFGGGTRLTVL | 86.9% | 0.84 nM |
| YANG-1108 (antibody, V domains shown) VH: QVQLVESGGGVVHPGRSLRLSCVVSGFTFSGYGMYWVRQAPGKGLEWVAVISKDGSDKYYADSVKGRFTISRDNSKNTLNLQMNSLRAEDTAVFYCAKERTFQGSGSYYNNYFYYGMDVWGQGTTVTVSS VL: AIQLTQSPSSLSASVGDRVTITCRASQGISSALAWYQQKPGKAPNLLIYDASSLESGVPSRFSGSGFGTDFTLTINSLQPEDFASYYCQQFKSYPLTFGGGTKVEIK | 95.2% |  |

These binders were tested against SARS-CoV-2 spike protein bearing furin mutation and truncation in retention sequence (on pseudoviral envelope) (SARS-CoV-2, UniProt P0DTC2 14-1273) (assay: cell-based or functional assay).

| Binder | PV neutralisation IC50 | PV neutralization % (Ab 1 ug/mL) |
| --- | --- | --- |
| YANG-2203 (antibody, V domains shown) VH: QVQLVQSGAEVKQPGASVKVSCRASGYALTSFYVHWVRQAPGQGLEWMGIIKPSGGDTIYAQNLQGRVTMTRDTSTNTFYVELSSLRSEDTALYYCAISGNTRAFEIWGQGTMVTVSL VL: QSVLTQPPSVSAAPGQKVTISCSGSSSNIGNNFVSWYQQLPGMVPKLLIYANNKRPSGIPDRFSGSRSGTSATLGITGLQTGDEADYYCGTWDSSRSAVLFGGGTKMTVL | 5.45 nM | 35.7% |
| YANG-2204 (antibody, V domains shown) VH: QMQLVQSGAEVKKPGASVKFSCKTSGYTFTNYYMVWVRQAPGQGLEWMGIIKPSGGNTIYAQKFQGRVTMTRDTSTNTVYMDLTSLRSEDTAVYYCARTGDRAFDVWGQGTMVTVSS VL: QSVLTQPPSVSAAPGQKVTISCSGSSSNIGNNYVSWYQQLPGTAPKLLIYDNNKRPSGIPDRFSGSKSGTSATLGITGLQTGDEADYYCGTWDSSLGAGVFGGGTKLTVL | 3.3 nM | 41% |
| YANG-2202 (antibody, V domains shown) VH: EVQLVESGGGLVQPGGSLRLSCAASGFTFSSFAMSWVRQAPGKGLEWVAAFSGRGAITHYTDSVKGRFTISRDNSKNTLYLQMNSLRAEDTAVYYCATYNWNPYYFDFWGQGTLVTVSS VL: DIQMTQSPSSVSASIGDRVTITCRASQDINIWLAWYQQKPGKAPNLLIFDTSNLQSGVPSRFSGSGSGSDFTLTISSLQPEDFATYYCQQGNSFPRTFGQGTRLEIK |  | 37.5% |

Source: patent US20250026813A1 (published 2025)
